The text below walks through data of patent US20240218057A1 (ROCKEFELLER UNIVERSITY, published 2024).

Where a chain is given by its changes, count along the chain named.

To fix the notation:
B1: C844 (antibody, V domains shown)
VH: EVQLVESGGGLVKPGGSLRLSCVATGFSFSDAWMNWVRQAPGKGLEWVGRIRSEIADGTTDYAAPVKGRFTISRDDARNTLYLQMNSLEIEDTAVYYCTTGVVVVVSSSPDDAFDVWGQGTMVTVSS
VL: DIQMTQSPSSLSASVGDRVTITCRASQSIGHYLNWYQQKPGKAPKLLIYAASSLQSGVPSRFSGSGSGAGFTLTVNGLQPEDLATYYCQQYYTTPPTFGQGTKVEIK
B2: C843 (antibody, V domains shown)
VH: QVQLVESGGGVVQPGRSLRLSCAASGFTFSRYAMHWVRQAPGKGLEWVAVISYDGSNKYYATSLKGRCTISRDNSKNTLYLQMNSLRAEDTAVYFCAKQIGEYCSGGNCYQGSLDYWGQGTLVTVSS
VL: DIQMTQSPSSLSASVGDRVTITCQASQDISNYLNWYQQKPGKAPKLLIYDASDLETGVPSTFSGSGSGTDFTLTISSLQPEDFATYYCQQYDIVPFTFGPGTKVDIK
B3: C954 (antibody, V domains shown)
VH: QVQLVQSGAEVKKPGSSVKVSCKASGDTFTNYAFSWMRQAPGQGLEWMGRIIPILGIVKYSQKFQDRVRISADKSTSTAYMDLSSLRSEDTAMYYCARDSEFSTSWFSRGYHGMDVWGQGTTVTVSS
VL: DIVMTQSPLSLPVTPGEPASISCRSSQSLLHGDGYNYLDWYLQKPGQSPHLLIYLGSNRTSGVSDRFSGSGSGTDFTLKISRVEAEDVGVYYCMQALQTPPTFGGGTKVEIK
B4: C951 (antibody, V domains shown)
VH: QVQLQESGPRLVKPSGTLSLTCAVSGGSISTTNWWSWVRQPPGKGLEWIGEIHHSGNTNYNPSLKSRVTISVDRSKNQFSLKLSSVTAADTAVYFCARDGGRPGDPFDIWGQGTMVTVSS
VL: QSALTQPASVSGSPGQSITISCTGTSSDVGGYNYVSWYQQHPGKAPNLMIYDVSDRPSGVSNRFSGSKSGNTASLTISGLQAEDEADYYCNSFTSNSTRVFGTGTKVTV
B5: C889 (antibody, V domains shown)
VH: EVQLVESGGGLVQPGGSLRLSCAVSGFTVSSNYMTWVRQAPGKGLEWVSLIYSGTSAFYADSVKGRFTISRDNSKNTLYLQMSSLRVNDTAIYYCARDLRKDDGYSYGAFDYWGQGTLVTVSS
VL: QSALTQPASVSGSPGQSITISCSGTSSDVGAHNYVSWYQQYPGKAPKLMIFDVTDRPSGVSNRFSGSKSGNTASLTISGLQAEDEADYYCTSYTTNRSWVFGGGTKVTVL
B6: C1027 (antibody, V domains shown)
VH: EVQLVESGGGLVQPGGSLRLSCAASGFIVTTNYMSWVRQAPGKGLEWVSLIYPGGSTFYADSVEGRFTISRDNSKNTLYLQVNSLRVEDTAVYYCARDTFGRGDDHWGQGTLVTVSS
VL: DIQMTQSPSSLSASVGDRVTITCQASQDINIYLNWYQQRPGKAPKLLIYDASNLQTGVPSRFSGSGSGTDFTITISSLQPEDIATYYCQQYDNLPRSFGQGTKLEI
B7: C1002 (antibody, V domains shown)
VH: EVQLVESGGGLVQPGGSLRLSCAASEFIVSSNYMTWVRQAPGKGLEWVSIMYPGGSTFYADSVKGRFTISRDNSKNTLYLQINRLRAEDTAVYYCARDIAGRLDYWGQGTLVTVSS
VL: DIQMTQSPSSLSASVGDRVTITCQASQDINNYLNWYQQKPGKAPKLLIYDASNLETGVPSRFSGSGSGTDFSFTISSLQPEDIATYYCQQYDNLSRLTFGGGTKVEIK
B8: C853 (antibody, V domains shown)
VH: QVQLQESGPGLVKASQTLSLTCTVSGGSFRSGGYYYNWIRQHPGKGLEWIGYIFYTGVTYYNPSLKSRVSISVDTSKNQLSLNLTSVTAADTAVYYCARGSYSDYNGGWDYWGRGTLVTVS
VL: QSALTQPPSASGSPGQSVTISCIGTSSDVGGYNYVSWYQHHPGKAPKLIIYEVSKRPSGVPDRFSGSKSGNTASLTVSGLQADDEADYYCSSYAGSNNWVFGGGTKLTV
B9: C936 (antibody, V domains shown)
VH: EVQLVESGGGLIQPGGSLRLSCAASGFTVSSNYMSWVRQAPGKGLEWVSVIYSGGSTFYADSVKGRFTISRDNSKNTLYLQMNSLRAEDTAVYYCARDLGTGLFDYWGQGTLVTVSS
VL: DIQLTQSPSFLSASVGDRVTITCRASQGISSYLAWYQQKPGKAPKLLIYAASTLQSGVPSRFSGSGSGTEFTLTISSLQPEDFATYYCQQLDSYPPGTFGPGTKVDIK
B10: C929 (antibody, V domains shown)
VH: B9 VH with S35T, S56T, F58Y, G100V, T101V, G102W, L103G, F104M, Y106V, L112T
VL: DIQLTQSPSFLSASVGDRVTITCRASQGISSYLAWYQQKPGKAPKLLIYAASTLQSGVPSRFSGSGSGTEFTLTISSLQPEDFATYYCQLLNSYPYTFGQGTKLEIK
B11: C930 (antibody, V domains shown)
VH: EVQLVESGGGLFQPGGSLRLACAASGITVSSNYMSWVRQPPGKGLEWVSVIYAGGSTFYADSVKGRLTISRDNSKNTLYLQINSLRAEDTAVYYCARDLVVWGMDVWGQGTTVTVSS
VL: B10 VL with L90Q, S93T
B12: C937 (antibody, V domains shown)
VH: B9 VH with G26E, F27L, S53P
VL: B9 VL with Y87F, Q90L, D92N, Y94N
B13: C888 (antibody, V domains shown)
VH: EVQLVESGGGLVQPGGSLRLSCAASGFTVSSNYMSWVRQAPGKGLEWVSVIYSGGSAYYADSVKGRFTISRDNSKNTLYLQMNSLRAEDTAVYYCARDLRDQDGYSYGAFDYWGQGTLVTVSS
VL: QSALTQPASVSGSPGQSITISCTGTSSDVGGYNYVSWYQQHPGKAPKLMIYDVSNRPSGVSNRFSGSKSGNTASLTISGLQAEDEADYYCSSYTSSSSWVFGGGTKLTVL
B14: C1009 (antibody, V domains shown)
VH: EVQLVESGGGLLQPGGSLRLSCAASGFSVSSNYMTWVRQAPGKGLEWVAAIYSGDSTYYVDSVKGRFIISRDNSKNTVYLHLSSLRAEDTAVYYCARLVGYDFRSGSDGGYFDYWGHGTLVTVSS
VL: B13 VL with V29I, G31N, Y34L, N55K, A86T, S91C, T94A, S95G, S98T
B15: C1008 (antibody, V domains shown)
VH: EVQLVESGGGLIQPGGSLRLSCAASGFTVSSNYMSWVRQAPGKGLEWVSVIYSGGSTYYADSVKGRFTISRDNSKNTLYLQMNSLRAEDTAVYYCARVVGYDFWSGYDGGYFDYWGQGTLVTVSS
VL: B13 VL with G31S, Y34L, D52E, N55K, S91C, T94A, S95G, S98T
B16: C960 (antibody, V domains shown)
VH: QVQLVESGGGVVQPGRSLTLSCTASGFTFNRFAMFWVRQAPGKGLEWVAVISFDGSYEHYAESVKGRFAIFRDNPKNTLYLQMNSLRAEDTAVYYCAKSPINYCANGVCYPDSWGQGTLVTVSS
VL: NFMLTQPHSVSESPGKTVTISCTGSSGSIANNYVQWYQQRPGSAPTTVIFEDTQRPSGVPDRFSGSIDSSSNSASLNISGLKPEDEADYYCQSFDVNSRWVFGGGTKLTVL
B17: C871 (antibody, V domains shown)
VH: EVQLVESGGGLIQTGGSLKLSCAASGFIVTNNYMSWVRQAPGKGLEWVSVIYSGGTTYYADSVKGRFTISRDISKNTLYLQMNSLKAEDTAVYYCAREGDVEGISDSWSGYSRDRYYFDHWGQGTLVTVSS
VL: QSALTQPASVSGSPGQSITISCTGTSSDVGGYNYVSWYQQHPGKAPKLMIYDVSNRPPTISNRFSGSKSGNTASLIISGLQPEDEADYYCSSFTSNNTRVFGTGTKVTVL
B18: C934 (antibody, V domains shown)
VH: QVQLVQSGAEVKKPGASVKVSCKASGYTFTDYYIHWVRQAPGQGLEWMGWINPNSGGTNYAQKFQGRVTMTRDTSISTAYMDLSRLRSDDTAVYYCARDVIITMGRGVVFRMDVWGQGTTVTVSS
VL: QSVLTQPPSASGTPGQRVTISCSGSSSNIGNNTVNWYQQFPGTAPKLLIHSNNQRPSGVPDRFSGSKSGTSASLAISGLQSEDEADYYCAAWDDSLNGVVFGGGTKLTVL
B19: C908 (antibody, V domains shown)
VH: EVQLVQSGAEVKKPGESLKISCKASGYSFTIYWIGWVRQMPGKGLEWMGIIYPGESETRYSPSFQGQVTISADKSISTAYLQWRSLKASDTAMYYCARGGPPGGVKLELTDYWGQGTLVTVSS
VL: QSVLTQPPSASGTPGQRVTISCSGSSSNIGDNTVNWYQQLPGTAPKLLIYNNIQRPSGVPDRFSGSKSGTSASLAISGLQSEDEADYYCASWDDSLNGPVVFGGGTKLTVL
B20: C953 (antibody, V domains shown)
VH: QVQLVQSGAEVKKPGSSVKVSCKASGGTFSSYAISWVRQAPGQGLEWMGRIIPILGIANYAQKFQGRVTITADKSTSTAYMELSSLRSEDTAVYYCARDSEYSSSWYSRGYYGMDVWGQGTTVTVSS
VL: not shown
B21: C952 (antibody, V domains shown)
VH: EVQLVQSGAEVKKPGESLTISCKDSGNSFTIYWIGWVRQMPGKGLEWMGMIYPGDSGTRYSPSFEGQVTISADESINTAYLQWRSLKASDTAMYYCVRGIAVDWYFDLWGRGTLVTVSS
VL: QSVLTQPPSVSGAPGQRVTISCTGSSSNIGAGFDVHWYQQLPGTAPKLLIYGNNNRPSGVPDRFSGSKSATSASLAITGLQAEDEADYYCQSSDSSLSGLYVFGTGTNVIV
B22: C1003 (antibody, V domains shown)
VH: QVQLVESGGGVVQPGRSLRLSCAASGFAFSSYGMNWVRQAPGKGLEWVTTVSSDGNVNYYIDSVKGRFTISRDNSKNTLYLQMNSLRGDDTAVYYCAKGPRFGWSYRGGSGFDIWGQGTMVTVSS
VL: DIQMTQSPSSLSASVGDRVTITCQASQDISNYLNWYQQKPGKAPKLLIYDASNLETGVPSRFSGSGSGTDFTFTITSLQPEDIATYYCQQYDNLPITFGQGTRLEIK
B23: C881 (antibody, V domains shown)
VH: EVQLVESGGGLIQPGGSLRLSCAVSGVAVSTNYMSWVRQAPGQGLEWVSTIYSGDTTYYSDSVKGRFTISRDNSKNTFYLQMNSLRVPDTAVYYCARLGGVFNGFNGSFDYWGQGTLVTVS
VL: QSALTQPASVSGSPGQSITISCIGTSSDFENYNLVSWYQQHPGKAPKVMIYEDTKRPSGVSNRFSGSKSANTASLTISGLQAEDEAEYYCCSYAGASTWVFGGGTRVTVV

The first test deals with T1, SARS-CoV-2 receptor-binding domain (RBD), S protein residues 319-539 (SARS-CoV-2, UniProt P0DTC2 319-539).
T1 construct: also called WT RBD; SARS-COV-2 RBD
The test is described as follows: ELISA on coated RBD. For orientation: ELISA stands for enzyme-linked immunosorbent assay.
Usually EC50 stands for the concentration that produces a half-maximal response. In turn, B1 returned an EC50 of 1.28 ng/mL.

As for B2, the EC50 amounted to 1.34 ng/mL.

For a further test, the target named is T2, SARS-CoV-2 receptor-binding domain (WT RBD; S protein residues 319-539) (SARS-CoV-2, UniProt P0DTC2 319-539).
T2 construct: also called SARS-COV-2 RBD
The test is described as follows: BLI (Octet Red), IgG on protein A biosensor, WT RBD in solution, 1:1 fit.
Broadly, the Kd is the concentration at which binding is half-saturated. Read a low Kd as a tighter complex. Regarding B3, the affinity, expressed as Kd, was 7.14 nM.

B4 displayed a Kd of 3.03 nM.

In turn, B5 had a Kd of 4.17 nM.

Consider B6, for which the Kd turned out to be 0.0114 nM. Compared with the last molecule, the Kd is about 370-fold lower.

Regarding B7, the Kd came to 0.00196 nM. This Kd is about 5.8-fold lower than that of the molecule before.

Molecule B8 yielded a Kd of 5.88 nM.

On to B9, for which binding was characterised by a dissociation constant (Kd) of 667 nM.

For the molecule B10, binding was put at a Kd of 0.127 nM. This Kd is about 5300-fold lower than that of the molecule before.

B11: the Kd was 0.323 nM.

B12 returned a Kd of 3.03 nM.

For B13, the affinity, expressed as Kd, was 1390 nM.

In the case of B14, binding was put at a Kd of 2.13 nM.

As for B15, binding was put at a Kd of 500 nM.

Molecule B16 showed a Kd of 6.67 nM.

B17 returned a Kd of 3.7 nM.

B18 registered a Kd of 100 nM. This Kd lies about 27-fold higher than the previous one.

B19 had a Kd of 0.0026 nM. Compared with the last molecule, the Kd is about 38000-fold lower.

Take B20: the Kd was 164 nM.

B21 showed a Kd of 0.172 nM.

Regarding B22, the affinity, expressed as Kd, was 90.9 nM.

B23 came in with a Kd of 5.26 nM.
